The values that follow come from publication PMC3493480.

The target in experiment [1] is bromodomain protein 4 (Brd4), endogenous (human (endogenous in C33A and 293T)) (UniProt O60885). In words: co-IP; nuclear extracts of transfected C33A or 293T cells IPed with polyclonal Brd4 antibody (NA or CA) or normal rabbit IgG, immunoblot; immuno-complexes unchanged at 300 mM NaCl, only slightly dissociated at 500 and 1000 mM.
Experiment [2] has the same target.
For experiment [3] the target is unchanged. The source holds these as a separate data set.

Take “MCV large T antigen (LT), Xpress-tagged, from pcDNA4C-MCV LT (natural protein)”: the percent of the MCV LT co-immunoprecipitated in experiment [1] came to 40%.

“MCV large T antigen (LT) expressed from pADL* (natural protein)” gave an MCV episome copy number by qPCR in 293-4T cells (stably expressing MCV LT and sT) super-transfected with the Brd4 471-730 DNI construct, 24 h to 4 days: reduction (∼60% within the first 24 h) in experiment [2] of 94%. The same substance registered a replication of the MCV genome (LT expressed from the viral genome) in 293T cells co-transfected with 0, 7 or 9 µg pcDNA4C-Brd4 471-730, DpnI-resistant DNA by Southern blotting at 24 h: inhibition in experiment [3] of 92%. In addition, the percent of the MCV LT co-immunoprecipitated in experiment [1] turned out to be 20%.
